# What was measured:
# [1] = biological target: HCV envelope glycoproteins E1 and E2 on HCV genotype 3a virus from patients' serum (Hepatitis C virus genotype 3a)
# [2] = biological target: HCV envelope glycoproteins E1 and E2 of genotype 3a on HCV pseudoparticles (Hepatitis C virus genotype 3a)
binder,measurement,setting,value
Galanthus nivalis agglutinin (natural protein) SCLSDNILYSGETLSTGEFLNYGSFVFIMQEDCNLVLYDVDKPIWATNTGGLSRSCFLSMQTDGNLVVYNPSNKPIWASNTGGQNGNYVCILQKDRNVVIYGTDRWATG,"infection of Huh-7 cells by HCV 3a virus pre-incubated with GNA, HCV RNA by quantitative RT-PCR, EC50 (Figure 4)",[1],1 µg
same,"infection of Huh-7 cells by HCV 3a virus pre-incubated with GNA, HCV RNA by quantitative RT-PCR, EC90 (Figure 4)",[1],5 µg
same,"inhibition of HCVpp entry into Huh-7 cells, concentration of GNA for 50% reduction (Figure 3a and 3b)",[2],1 µg

# From paper PMC3117843
